This is an account of results in paper PMC12345224.

Some targets named below: FleN^A139V; FleN^L260R; FleN^R218C; FleN^V24L.
Assay in all cases: bacterial two-hybrid (β-galactosidase activity)
What all share (details): in vivo, E. coli BTH101; T18 and T25 fusions; parent: est. 1400; read off a plot

On to wild-type FleN A139V, for which the response (Miller unites) in the experiment with FleN^A139V worked out at 870.

Consider wild-type FleN L260R, for which the response (Miller unites) in the experiment with FleN^L260R was found to be 1000.

Turning to wild-type FleN R218C, the response (Miller unites) with FleN^R218C turned out to be 1200.

For wild-type FleN V24L, the response (Miller unites) in the experiment with FleN^V24L is 130.
